We go through 61 substances from patent publication US12065471B2, “B*44 restricted peptides for use in immunotherapy against cancers and related methods” (Immatics Biotechnologies GmbH, priority 2018, dated 2024).

In the assay the target is HLA-B*44:05 (Homo sapiens, UniProt P01889, A223V/A65T/A93T/A95T/D201E/D98Y/E176V/E187L/E204Q/E69K/G107R/H137Y/K202T/L105A/L119I/N104T/N87E/Q56L/Q94N/R106L/R155S/R180D/S101N/S121R/S35A/S48T/T118I/V36M/W191S/Y91S). In words: MHC binding assay (UV-ligand exchange, β2m ELISA, peptide exchange yield). Conditions: binding to HLA-B*44:05. The method in brief:
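Binding is read as exchange yield, i.e. stabilized complex remaining after UV cleavage of a photolabile ligand in the presence of the candidate peptide. Streptavidin-captured monomers (100-fold dilution) are probed with HRP-anti-β2m, 1h at 37° C, TMB, A450. Standard curve: HLA-A*02:01/MLA-001 monomers at 15-500 ng/ml.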
On the technique in general: An ELISA detects its analyte on a solid surface through an enzyme-linked reagent.
Consider “2 (EEFLRPRSL; listed as Homo sapiens) [compound 2]”, for which the “Peptide exchange (MHC class I binding score, peptide exchange yield)” value (“Peptide exchange” below) is “++ (>20% = ++)”.

With “307 (YEQLLKVVTW; listed as Homo sapiens) [compound 307]”, the “Peptide exchange” value is “++++ (>75% = ++++)”.

As to “185 (TEANVQALF; listed as Homo sapiens) [compound 185]”, the “Peptide exchange” value is reported as “++++ (>75% = ++++)”.

Turning to “132 (AESFTSGRHYW; listed as Homo sapiens) [compound 132]”, the “Peptide exchange” value is “++++ (>75% = ++++)”.

As for “65 (SESMVESKF; listed as Homo sapiens) [compound 65]”, the “Peptide exchange” value is given as “++ (>20% = ++)”.

With “196 (TELEVKIRDW; listed as Homo sapiens) [compound 196]”, the “Peptide exchange” value is reported as “++++ (>75% = ++++)”.

On to “371 (NEIGQELTGQEW; listed as Homo sapiens) [compound 371]”, for which the “Peptide exchange” value is given as “++++ (>75% = ++++)”.

In the case of “429 (RETEDYSKQAL; listed as Homo sapiens) [compound 429]”, the “Peptide exchange” value is listed as “++ (>20% = ++)”.

“363 (EECDKAFHF; listed as Homo sapiens) [compound 363]”: the “Peptide exchange” value is “+++ (>50 = +++)”.

Regarding “237 (QEIGQKTSV; listed as Homo sapiens) [compound 237]”, the “Peptide exchange” value is recorded as “+++ (>50 = +++)”.

Regarding “360 (DEMENLLTY; listed as Homo sapiens) [compound 360]”, the “Peptide exchange” value is “++++ (>75% = ++++)”.

Consider “346 (EEIENLQAQF; listed as Homo sapiens) [compound 346]”, for which the “Peptide exchange” value was “++ (>20% = ++)”.

For “167 (AETENRYCV; listed as Homo sapiens) [compound 167]”, the “Peptide exchange” value is “+++ (>50 = +++)”.

Take “234 (TEEPQRLFY; listed as Homo sapiens) [compound 234]”: the “Peptide exchange” value was “+ (>10% = +)”.

On to “10 (SEYPTKNYV; listed as Homo sapiens) [compound 10]”, for which the “Peptide exchange” value is “++ (>20% = ++)”.

Turning to “266 (EEEDRDGHTW; listed as Homo sapiens) [compound 266]”, the “Peptide exchange” value is reported as “+++ (>50 = +++)”.

Consider “453 (SESKVFQLL; listed as Homo sapiens) [compound 453]”, for which the “Peptide exchange” value is reported as “+++ (>50 = +++)”.

As for “318 (SESSSFLKV; listed as Homo sapiens) [compound 318]”, the “Peptide exchange” value was “+++ (>50 = +++)”.

Turning to “373 (REDPIVYEI; listed as Homo sapiens) [compound 373]”, the “Peptide exchange” value is “++ (>20% = ++)”.

For the substance “251 (DESADSEPHKY; listed as Homo sapiens) [compound 251]”, the “Peptide exchange” value is given as “+ (>10% = +)”.

“193 (RELRPLFDRQW; listed as Homo sapiens) [compound 193]”: the “Peptide exchange” value was “+++ (>50 = +++)”.

Turning to “248 (KESQLPTVMDF; listed as Homo sapiens) [compound 248]”, the “Peptide exchange” value was “+++ (>50 = +++)”.

For “436 (AEADLSYTWDF; listed as Homo sapiens) [compound 436]”, the “Peptide exchange” value is recorded as “+++ (>50 = +++)”.

As for “382 (SELNPLALY; listed as Homo sapiens) [compound 382]”, the “Peptide exchange” value is given as “+++ (>50 = +++)”.

As to “380 (EECGKAFRVF; listed as Homo sapiens) [compound 380]”, the “Peptide exchange” value is on record as “+++ (>50 = +++)”.

“130 (REYQEVMNSKL; listed as Homo sapiens) [compound 130]”: the “Peptide exchange” value is listed as “+++ (>50 = +++)”.

“75 (LETSCGSSTAY; listed as Homo sapiens) [compound 75]”: the “Peptide exchange” value is recorded as “+ (>10% = +)”.

In the case of “274 (DEIDKLTGY; listed as Homo sapiens) [compound 274]”, the “Peptide exchange” value is on record as “++ (>20% = ++)”.

For the substance “87 (GEARGDQVDW; listed as Homo sapiens) [compound 87]”, the “Peptide exchange” value is “++++ (>75% = ++++)”.

With “158 (VEEERYTGQW; listed as Homo sapiens) [compound 158]”, the “Peptide exchange” value is given as “+++ (>50 = +++)”.

As to “317 (TEFQQIINL; listed as Homo sapiens) [compound 317]”, the “Peptide exchange” value is given as “++++ (>75% = ++++)”.

In the case of “342 (SENKKWVEF; listed as Homo sapiens) [compound 342]”, the “Peptide exchange” value is given as “++ (>20% = ++)”.

“99 (SECVKSLSF; listed as Homo sapiens) [compound 99]”: the “Peptide exchange” value is given as “++++ (>75% = ++++)”.

Consider “276 (SEYQDGKEF; listed as Homo sapiens) [compound 276]”, for which the “Peptide exchange” value is reported as “++ (>20% = ++)”.

As to “439 (VEVGDRTDW; listed as Homo sapiens) [compound 439]”, the “Peptide exchange” value was “+++ (>50 = +++)”.

“406 (GETVVLKNM; listed as Homo sapiens) [compound 406]”: the “Peptide exchange” value is on record as “+++ (>50 = +++)”.

Consider “437 (HEDPSGSLHL; listed as Homo sapiens) [compound 437]”, for which the “Peptide exchange” value was “+++ (>50 = +++)”.

As to “204 (YERPTLVEL; listed as Homo sapiens) [compound 204]”, the “Peptide exchange” value is on record as “+++ (>50 = +++)”.

Take “340 (GELAPSHGL; listed as Homo sapiens) [compound 340]”: the “Peptide exchange” value was “+++ (>50 = +++)”.

As for “27 (GETCVRITY; listed as Homo sapiens) [compound 27]”, the “Peptide exchange” value was “+++ (>50 = +++)”.

Turning to “288 (TEHFLKKFF; listed as Homo sapiens) [compound 288]”, the “Peptide exchange” value was “+++ (>50 = +++)”.

With “125 (LEVLHQGQW; listed as Homo sapiens) [compound 125]”, the “Peptide exchange” value is on record as “+++ (>50 = +++)”.

On to “354 (TEIMEKTTL; listed as Homo sapiens) [compound 354]”, for which the “Peptide exchange” value is “+++ (>50 = +++)”.

As for “103 (AELFLTKSF; listed as Homo sapiens) [compound 103]”, the “Peptide exchange” value was “++++ (>75% = ++++)”.

Regarding “219 (WEVEVGDRTDW; listed as Homo sapiens) [compound 219]”, the “Peptide exchange” value was “+++ (>50 = +++)”.

On to “102 (TELADLDAAW; listed as Homo sapiens) [compound 102]”, for which the “Peptide exchange” value is listed as “++++ (>75% = ++++)”.

“232 (YEIRAEAL; listed as Homo sapiens) [compound 232]”: the “Peptide exchange” value was “++ (>20% = ++)”.

In the case of “410 (RELEEEFYSL; listed as Homo sapiens) [compound 410]”, the “Peptide exchange” value is listed as “+++ (>50 = +++)”.

With “228 (LEYEAPKLY; listed as Homo sapiens) [compound 228]”, the “Peptide exchange” value is listed as “++ (>20% = ++)”.

Take “262 (YENILNAI; listed as Homo sapiens) [compound 262]”: the “Peptide exchange” value was “++ (>20% = ++)”.

Turning to “278 (DQVTVFLHF; listed as Homo sapiens) [compound 278]”, the “Peptide exchange” value is “+ (>10% = +)”.

With “212 (SEASVYLFRF; listed as Homo sapiens) [compound 212]”, the “Peptide exchange” value was “+++ (>50 = +++)”.

As to “428 (AEEKAAVTSL; listed as Homo sapiens) [compound 428]”, the “Peptide exchange” value is reported as “+++ (>50 = +++)”.

With “170 (REMFVFKDQW; listed as Homo sapiens) [compound 170]”, the “Peptide exchange” value is reported as “++++ (>75% = ++++)”.

Consider “327 (SEQHSLPVF; listed as Homo sapiens) [compound 327]”, for which the “Peptide exchange” value is on record as “+++ (>50 = +++)”.

As for “217 (EVEVGDRTDW; listed as Homo sapiens) [compound 217]”, the “Peptide exchange” value is given as “++ (>20% = ++)”.

With “309 (SDDLRNVTW; listed as Homo sapiens) [compound 309]”, the “Peptide exchange” value was “++++ (>75% = ++++)”.

Take “396 (MELLFLDTF; listed as Homo sapiens) [compound 396]”: the “Peptide exchange” value was “++ (>20% = ++)”.

In the case of “182 (EELHAALSEW; listed as Homo sapiens) [compound 182]”, the “Peptide exchange” value is given as “++++ (>75% = ++++)”.

“202 (RELPLVLLA; listed as Homo sapiens) [compound 202]”: the “Peptide exchange” value is “++ (>20% = ++)”.

For the substance “255 (KQWEYNEKLAF; listed as Homo sapiens) [compound 255]”, the “Peptide exchange” value is on record as “+ (>10% = +)”.
